Columns and labels:
[1] = tested on: HeLa Kyoto; test: solubility change mitosis vs G1/S (difference of NP-40 vs SDS log2 ratios) (log2 ratio difference); higher = more soluble in mitosis
[2] = tested on: HeLa Kyoto; test: thermal stability score vs G1/S (z-score of summed log2 fold changes over temperatures); higher = more thermally stable than in G1/S
[3] = tested on: HeLa Kyoto; test: solubility in G1/S (NP-40 vs SDS abundance) (log2 ratio); higher = more soluble; conditions: cell cycle stage: G1/S
[4] = tested on: HeLa Kyoto; test: melting temperature (median over replicates), in situ; higher = more thermally stable
[5] = cell cycle stage: early G1 (4.5 h after nocodazole release)
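Wherever melting temperature (median over replicates), in situ is given: HeLa Kyoto cells synchronized by double thymidine or nocodazole block, proteins quantified by TMT10plex mass spectrometry, three independent biological replicates.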
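Wherever solubility change mitosis vs G1/S (difference of NP-40 vs SDS log2 ratios) is given: synchronized HeLa Kyoto cells (double thymidine block for G1/S, nocodazole release for mitosis), protein amounts in NP-40 versus SDS lysates quantified by mass spectrometry, three biological replicates.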
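Wherever solubility in G1/S (NP-40 vs SDS abundance) is given: HeLa Kyoto cells arrested at G1/S by double thymidine block, proteins quantified by TMT10plex mass spectrometry in mild NP-40 versus SDS extracts, three biological replicates.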
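Wherever thermal stability score vs G1/S (z-score of summed log2 fold changes over temperatures) is given: synchronized HeLa Kyoto cells, proteins quantified by TMT10plex mass spectrometry, three biological replicates, mitosis taken 0.5 h after nocodazole release, G1/S directly after double thymidine block.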

Sequence of PSME2 (chain, as listed by the source): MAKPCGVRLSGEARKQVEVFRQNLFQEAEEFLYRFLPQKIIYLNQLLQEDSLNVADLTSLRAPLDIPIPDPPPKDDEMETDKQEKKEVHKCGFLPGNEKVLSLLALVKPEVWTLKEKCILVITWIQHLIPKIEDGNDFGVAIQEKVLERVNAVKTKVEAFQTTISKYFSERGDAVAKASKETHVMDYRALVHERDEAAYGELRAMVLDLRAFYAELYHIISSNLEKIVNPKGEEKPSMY

| Substance | solubility change mitosis (log2) [1] | thermal stability score [2, 5] | thermal stability score ([2]; cell cycle stage: mitosis) | solubility in G1/S (log2) [3] | melting temperature ([4]; cell cycle stage: G1/S) | melting temperature ([4]; cell cycle stage: mitosis) |
| --- | --- | --- | --- | --- | --- | --- |
| METLSFPRYNVAEIVIHIRNKILTGADGKNLTKNDLYPNPKPEVLHMIYMRALQIVYGIRLEHFYMMPVNSEVMYPHLMEGFLPFSNLVTHLDSFLPICRVNDFETADILCPKAKRTSRFLSGIINFIHFREACRETYMEFLWQYKSSADKMQQLNAAHQEALMKLERLDSVPVEEQEEFKQLSDGIQELQQSLNQDFHQKTIVLQEGNSQKKSNISEKTKRLNELKLSVVSLKEIQESLKTKIVDSPEKLKNYKEKMKDTVQKLKNARQEVVEKYEIYGDSVDCLPSCQLEVQLYQKKIQDLSDNREKLASILKESLNLEDQIESDESELKKLKTEENSFKRLMIVKKEKLATAQFKINKKHEDVKQYKRTVIEDCNKVQEKRGAVYERVTTINQEIQKIKLGIQQLKDAAEREKLKSQEIFLNLKTALEKYHDGIEKAAEDSYAKIDEKTAELKRKMFKMST [NUF2] | -0.0858 | 0.86 | 1.16 | -0.0908 | 48.2 °C | 48.1 °C |
| PSME2 | 0.0782 | -0.487 | 2.4 | 0.142 | 52.8 °C | 53.8 °C |
| MPDENIFLFVPNLIGYARIVFAIISFYFMPCCPLTASSFYLLSGLLDAFDGHAARALNQGTRFGAMLDMLTDRCSTMCLLVNLALLYPGATLFFQISMSLDVASHWLHLHSSVVRGSESHKMIDLSGNPVLRIYYTSRPALFTLCAGNELFYCLLYLFHFSEGPLVGSVGLFRMGLWVTAPIALLKSLISVIHLITAARNMAALDAADRAKKK [CDIPT] | -0.0289 | -2.08 | -1.66 | -0.0899 | 54.7 °C | 59.4 °C |
| MASACGAPGPGGALGSQAPSWYHRDLSRAAAEELLARAGRDGSFLVRDSESVAGAFALCVLYQKHVHTYRILPDGEDFLAVQTSQGVPVRRFQTLGELIGLYAQPNQGLVCALLLPVEGEREPDPPDDRDASDGEDEKPPLPPRSGSTSISAPTGPSSPLPAPETPTAPAAESAPNGLSTVSHDYLKGSYGLDLEAVRGGASHLPHLTRTLATSCRRLHSEVDKVLSGLEILSKVFDQQSSPMVTRLLQQQNLPQTGEQELESLVLKLSVLKDFLSGIQKKALKALQDMSSTAPPAPQPSTRKAKTIPVQAFEVKLDVTLGDLTKIGKSQKFTLSVDVEGGRLVLLRRQRDSQEDWTTFTHDRIRQLIKSQRVQNKLGVVFEKEKDRTQRKDFIFVSARKREAFCQLLQLMKNKHSKQDEPDMISVFIGTWNMGSVPPPKNVTSWFTSKGLGKTLDEVTVTIPHDIYVFGTQENSVGDREWLDLLRGGLKELTDLDYRPIAMQSLWNIKVAVLVKPEHENRISHVSTSSVKTGIANTLGNKGAVGVSFMFNGTSFGFVNCHLTSGNEKTARRNQNYLDILRLLSLGDRQLNAFDISLRFTHLFWFGDLNYRLDMDIQEILNYISRKEFEPLLRVDQLNLEREKHKVFLRFSEEEISFPPTYRYERGSRDTYAWHKQKPTGVRTNVPSWCDRILWKSYPETHIICNSYGCTDDIVTSDHSPVFGTFEVGVTSQFISKKGLSKTSDQAYIEFESIEAIVKTASRTKFFIEFYSTCLEEYKKSFENDAQSSDNINFLKVQWSSRQLPTLKPILADIEYLQDQHLLLTVKSMDGYESYGECVVALKSMIGSTAQQFLTFLSHRGEETGNIRGSMKVRVPTERLGTRERLYEWISIDKDEAGAKSKAPSVSRGSQEPRSGSRKPAFTEASCPLSRLFEEPEKPPPTGRPPAPPRAAPREEPLTPRLKPEGAPEPEGVAAPPPKNSFNNPAYYVLEGVPHQLLPPEPPSPARAPVPSATKNKVAITVPAPQLGHHRHPRVGEGSSSDEESGGTLPPPDFPPPPLPDSAIFLPPSLDPLPGPVVRGRGGAEARGPPPPKAHPRPPLPPGPSPASTFLGEVASGDDRSCSVLQMAKTLSEVDYAPAGPARSALLPGPLELQPPRGLPSDYGRPLSFPPPRIRESIQEDLAEEAPCLQGGRASGLGEAGMSAWLRAIGLERYEEGLVHNGWDDLEFLSDITEEDLEEAGVQDPAHKRLLLDTLQLSK [INPPL1] | -0.119 | 0.612 | 2.56 | 0.0138 | 48.6 °C | 48.6 °C |
| RHOT2 | -0.0417 | -0.0452 | -0.352 | -0.00866 | 50.7 °C | 50.5 °C |
| MFCEKAMELIRELHRAPEGQLPAFNEDGLRQVLEEMKALYEQNQSDVNEAKSGGRSDLIPTIKFRHCSLLRNRRCTVAYLYDRLLRIRALRWEYGSVLPNALRFHMAAEEMEWFNNYKRSLATYMRSLGGDEGLDITQDMKPPKSLYIEVRCLKDYGEFEVDDGTSVLLKKNSQHFLPRWKCEQLIRQGVLEHILS [GINS1] | -0.00378 | -0.0841 | -0.424 | -0.0577 | 52.5 °C | 51.7 °C |
| MAATLKSLKLVRYRAFCSPSAFGAVRSVSYWNVSSTQHGGQDPPEHISLCHSAKKVKNICSTFSSRRILTTSSAHPGLEFSKTSSSKASTLQLGSPRATGVDEEDVEVFDSFENMRVFLQLRPEYRVHSYNASETSQLLSVSEGELILHKVRVNQNNLQAQVIVDYLCKLSSLPAEQHPVLLGSTSFALLCQLSVKKIQLFDTQDLINVLKAFVILGIPHSHSMLDVYETKCCHQVWEMNMDQLLLVADLWRYLGRKVPRFLNIFSSYLNLHWKDLSLSQLVHLIYVIGENRQVSQDLMQKLESLILKYIDLINLEEVGTICLGFFKSSTNLSEFVMRKIGDLACANIQHLSSRSLVNIVKMFRFTHVDHINFMKQIGEIAPQRIPSLGVQGVMHLTLYCSALRFLNEGVMNAVAASLPPRVAHCRSKDVAKILWSFGTLNYKPPNAEEFYSSLISEIHRKMPEFNQYPEHLPTCLLGLAFLEYFPVELIDFALSPGFVRLAQERTKFDLLKELYTLDGTVGIECPDYRGNRLSTHLQQEGSELLWYLAEKDMNSKPEFLETVFLLETMLGGPQYVKHHMILPHTRSSDLEVQLDVNLKPLPFNREATPAENVAKLRLEHVGVSLTDDLMNKLLKGKARGHFQGKTESEPGQQPMELENKAAVPLGGFLCNVADKSGAMEMAGLCPAACMQTPRMKLAVQFTNRNQYCYGSRDLLGLHNMKRRQLARLGYRVVELSYWEWLPLLKRTRLEKLAFLHEKVFTSAL [FASTKD5] | -0.0689 | 0.139 | 1.05 | -0.184 | 49.5 °C | 49.8 °C |
| MNKHQKPVLTGQRFKTRKRDEKEKFEPTVFRDTLVQGLNEAGDDLEAVAKFLDSTGSRLDYRRYADTLFDILVAGSMLAPGGTRIDDGDKTKMTNHCVFSANEDHETIRNYAQVFNKLIRRYKYLEKAFEDEMKKLLLFLKAFSETEQTKLAMLSGILLGNGTLPATILTSLFTDSLVKEGIAASFAVKLFKAWMAEKDANSVTSSLRKANLDKRLLELFPVNRQSVDHFAKYFTDAGLKELSDFLRVQQSLGTRKELQKELQERLSQECPIKEVVLYVKEEMKRNDLPETAVIGLLWTCIMNAVEWNKKEELVAEQALKHLKQYAPLLAVFSSQGQSELILLQKVQEYCYDNIHFMKAFQKIVVLFYKADVLSEEAILKWYKEAHVAKGKSVFLDQMKKFVEWLQNAEEESESEGEEN [BZW2] | -0.11 | 2.74 | 3.19 | 0.446 | 51.3 °C | 50.1 °C |
| LDLR | -0.00467 | -1.81 | -1.47 | -0.34 | 56.6 °C | 56.6 °C |
| MSSQSHPDGLSGRDQPVELLNPARVNHMPSTVDVATALPLQVAPSAVPMDLRLDHQFSLPVAEPALREQQLQQELLALKQKQQIQRQILIAEFQRQHEQLSRQHEAQLHEHIKQQQEMLAMKHQQELLEHQRKLERHRQEQELEKQHREQKLQQLKNKEKGKESAVASTEVKMKLQEFVLNKKKALAHRNLNHCISSDPRYWYGKTQHSSLDQSSPPQSGVSTSYNHPVLGMYDAKDDFPLRKTASEPNLKLRSRLKQKVAERRSSPLLRRKDGPVVTALKKRPLDVTDSACSSAPGSGPSSPNNSSGSVSAENGIAPAVPSIPAETSLAHRLVAREGSAAPLPLYTSPSLPNITLGLPATGPSAGTAGQQDAERLTLPALQQRLSLFPGTHLTPYLSTSPLERDGGAAHSPLLQHMVLLEQPPAQAPLVTGLGALPLHAQSLVGADRVSPSIHKLRQHRPLGRTQSAPLPQNAQALQHLVIQQQHQQFLEKHKQQFQQQQLQMNKIIPKPSEPARQPESHPEETEEELREHQALLDEPYLDRLPGQKEAHAQAGVQVKQEPIESDEEEAEPPREVEPGQRQPSEQELLFRQQALLLEQQRIHQLRNYQASMEAAGIPVSFGGHRPLSRAQSSPASATFPVSVQEPPTKPRFTTGLVYDTLMLKHQCTCGSSSSHPEHAGRIQSIWSRLQETGLRGKCECIRGRKATLEELQTVHSEAHTLLYGTNPLNRQKLDSKKLLGSLASVFVRLPCGGVGVDSDTIWNEVHSAGAARLAVGCVVELVFKVATGELKNGFAVVRPPGHHAEESTPMGFCYFNSVAVAAKLLQQRLSVSKILIVDWDVHHGNGTQQAFYSDPSVLYMSLHRYDDGNFFPGSGAPDEVGTGPGVGFNVNMAFTGGLDPPMGDAEYLAAFRTVVMPIASEFAPDVVLVSSGFDAVEGHPTPLGGYNLSARCFGYLTKQLMGLAGGRIVLALEGGHDLTAICDASEACVSALLGNELDPLPEKVLQQRPNANAVRSMEKVMEIHSKYWRCLQRTTSTAGRSLIEAQTCENEEAETVTAMASLSVGVKPAEKRPDEEPMEEEPPL [HDAC4] | -0.072 | -0.241 | 0.236 | 0.188 | 53.3 °C | 52.9 °C |
| MAAARATTPADGEEPAPEAEALAAARERSSRFLSGLELVKQGAEARVFRGRFQGRAAVIKHRFPKGYRHPALEARLGRRRTVQEARALLRCRRAGISAPVVFFVDYASNCLYMEEIEGSVTVRDYIQSTMETEKTPQGLSNLAKTIGQVLARMHDEDLIHGDLTTSNMLLKPPLEQLNIVLIDFGLSFISALPEDKGVDLYVLEKAFLSTHPNTETVFEAFLKSYSTSSKKARPVLKKLDEVRLRGRKRSMVG [TP53RK] | -0.151 | 0.0261 | -0.818 | 0.367 | 55.1 °C | 53 °C |
| MQPASAKWYDRRDYVFIEFCVEDSKDVNVNFEKSKLTFSCLGGSDNFKHLNEIDLFHCIDPNDSKHKRTDRSILCCLRKGESGQSWPRLTKERAKLNWLSVDFNNWKDWEDDSDEDMSNFDRFSEMMNNMGGDEDVDLPEVDGADDDSQDSDDEKMPDLE [PTGES3] | -0.00282 | 3.93 | 3.45 | 0.0757 | 48.7 °C | 49.9 °C |
| MEADKDDTQQILKEHSPDEFIKDEQNKGLIDEITKKNIQLKKEIQKLETELQEATKEFQIKEDIPETKMKFLSVETPENDSQLSNISCSFQVSSKVPYEIQKGQALITFEKEEVAQNVVSMSKHHVQIKDVNLEVTAKPVPLNSGVRFQVYVEVSKMKINVTEIPDTLREDQMRDKLELSFSKSRNGGGEVDRVDYDRQSGSAVITFVEIGVADKILKKKEYPLYINQTCHRVTVSPYTEIHLKKYQIFSGTSKRTVLLTGMEGIQMDEEIVEDLINIHFQRAKNGGGEVDVVKCSLGQPHIAYFEE [NMI] | -0.0719 | -1.52 | -4.03 | 0.127 | 55.4 °C | 55.7 °C |
